Test results reported in patent publication US20190248848A1.

What was measured:
[1] = target: biotinylated histone H3 peptide trimethylated at lysine 27, H3K27me3 (21-44) (UniProt P68431); experiment: histone peptide microspot array, 10 and 20 µM spotted H3K27me3
[2] = target: histone H3 trimethylated at lysine 27 (H3K27me3) in cellular chromatin at the Tk-luciferase reporter of HEK293 Gal4-EED/luc cells; experiment: cell-based or functional assay

Row | Substance | fold smaller Kd^app than PcTF [1] | luciferase activity, Tk-luciferase reporter, HEK293 Gal4-EED/luc cells, 96 hours dox (fold against PcTF) [2]
1 | Pc2TF, bivalent Polycomb-based transcription factor with the flexible linker (GGGGS)4 (pET28 construct; TXTL-expressed or purified from E. coli) (from UniProt Q9HC52 1-62; Q9HC52 1-62) (designed binder) | 2 fold | –
2 | Pc2TF with the flexible linker (GGGGS)4 (MV10 mammalian expression construct, expressed in HEK293 Gal4-EED/luc cells) (from UniProt Q9HC52 1-62; Q9HC52 1-62) (designed binder) | – | 2
